This note sets out measurements from ChEMBL document CHEMBL1123068, “2-Fluoroformycin and 2-aminoformycin. Synthesis and biological activity” (J Med Chem, 1985).

Substrate in data set [1]: Nc1nc(N)c2ncn([C@@H]3O[C@H](CO)[C@@H](O)[C@H]3O)c2n1
The data set can be described thus: (§1) Kinetic parameter was determined against adenosine deaminase expressed as Vmax.

Substrate in data set [2]: Nc1ncnc2c1ncn2[C@@H]1O[C@H](CO)[C@@H](O)[C@H]1O
The description is as §1.

Substrate in data set [3]: Nc1nc(F)nc2c1ncn2[C@@H]1O[C@H](CO)[C@@H](O)[C@@H]1O
The data set is described as §1.

Substrate in data set [4]: Nc1nc(F)nc2c1ncn2[C@@H]1O[C@H](CO)[C@@H](O)[C@@H]1O
Put plainly: Kinetic parameter was determined against adenosine deaminase expressed as Km.

B1: Adenosine deaminase (Bos taurus), P56658 (protein)
chain: MAQTPAFNKPKVELHVHLDGAIKPETILYYGRKRGIALPADTPEELQNIIGMDKPLSLPEFLAKFDYYMPAIAGCREAVKRIAYEFVEMKAKDGVVYVEVRYSPHLLANSKVEPIPWNQAEGDLTPDEVVSLVNQGLQEGERDFGVKVRSILCCMRHQPSWSSEVVELCKKYREQTVVAIDLAGDETIEGSSLFPGHVKAYAEAVKSGVHRTVHAGEVGSANVVKEAVDTLKTERLGHGYHTLEDATLYNRLRQENMHFEVCPWSSYLTGAWKPDTEHPVVRFKNDQVNYSLNTDDPLIFKSTLDTDYQMTKNEMGFTEEEFKRLNINAAKSSFLPEDEKKELLDLLYKAYGMPSPASAEQCL
Turning to B1, the Vmax (µmol min-1 mg-1) amounted to 119 in data set [1] and 435 in data set [2]. The Vmax in data set [3] was found to be 0.78 M/min/mg. Further, the Km in data set [4] amounted to 81 µM.

For orientation: Vmax means the rate approached at saturating substrate. As a reminder, the Km is the concentration of substrate that gives half-maximal velocity.
